Changes are numbered by the printed parent chain. Names may count otherwise. Values belong to the molecule of their own block, whether it stands above or below them.
Tests used:
[1] = molecular target: T1, A2ML1 (α2-macroglobulin-like protein 1) (Homo sapiens, UniProt A8K2U0); test: LC-MS/MS PRM of the pepsin-digested thiol ester peptide conjugate; format: biochemical; settings: covalent amide at thiol ester Gln-973; A2ML1 activated by chymotrypsin; 200 mM glycine, HBS pH 7.4, 37 °C
T1 construct: full-length recombinant, secreted by HEK293 Freestyle cells, no tag mentioned, purified by Zn IMAC, anion exchange and size exclusion; monomer; bait region cleaved by chymotrypsin in the assay
T1 sequence (A8K2U0 18-1454): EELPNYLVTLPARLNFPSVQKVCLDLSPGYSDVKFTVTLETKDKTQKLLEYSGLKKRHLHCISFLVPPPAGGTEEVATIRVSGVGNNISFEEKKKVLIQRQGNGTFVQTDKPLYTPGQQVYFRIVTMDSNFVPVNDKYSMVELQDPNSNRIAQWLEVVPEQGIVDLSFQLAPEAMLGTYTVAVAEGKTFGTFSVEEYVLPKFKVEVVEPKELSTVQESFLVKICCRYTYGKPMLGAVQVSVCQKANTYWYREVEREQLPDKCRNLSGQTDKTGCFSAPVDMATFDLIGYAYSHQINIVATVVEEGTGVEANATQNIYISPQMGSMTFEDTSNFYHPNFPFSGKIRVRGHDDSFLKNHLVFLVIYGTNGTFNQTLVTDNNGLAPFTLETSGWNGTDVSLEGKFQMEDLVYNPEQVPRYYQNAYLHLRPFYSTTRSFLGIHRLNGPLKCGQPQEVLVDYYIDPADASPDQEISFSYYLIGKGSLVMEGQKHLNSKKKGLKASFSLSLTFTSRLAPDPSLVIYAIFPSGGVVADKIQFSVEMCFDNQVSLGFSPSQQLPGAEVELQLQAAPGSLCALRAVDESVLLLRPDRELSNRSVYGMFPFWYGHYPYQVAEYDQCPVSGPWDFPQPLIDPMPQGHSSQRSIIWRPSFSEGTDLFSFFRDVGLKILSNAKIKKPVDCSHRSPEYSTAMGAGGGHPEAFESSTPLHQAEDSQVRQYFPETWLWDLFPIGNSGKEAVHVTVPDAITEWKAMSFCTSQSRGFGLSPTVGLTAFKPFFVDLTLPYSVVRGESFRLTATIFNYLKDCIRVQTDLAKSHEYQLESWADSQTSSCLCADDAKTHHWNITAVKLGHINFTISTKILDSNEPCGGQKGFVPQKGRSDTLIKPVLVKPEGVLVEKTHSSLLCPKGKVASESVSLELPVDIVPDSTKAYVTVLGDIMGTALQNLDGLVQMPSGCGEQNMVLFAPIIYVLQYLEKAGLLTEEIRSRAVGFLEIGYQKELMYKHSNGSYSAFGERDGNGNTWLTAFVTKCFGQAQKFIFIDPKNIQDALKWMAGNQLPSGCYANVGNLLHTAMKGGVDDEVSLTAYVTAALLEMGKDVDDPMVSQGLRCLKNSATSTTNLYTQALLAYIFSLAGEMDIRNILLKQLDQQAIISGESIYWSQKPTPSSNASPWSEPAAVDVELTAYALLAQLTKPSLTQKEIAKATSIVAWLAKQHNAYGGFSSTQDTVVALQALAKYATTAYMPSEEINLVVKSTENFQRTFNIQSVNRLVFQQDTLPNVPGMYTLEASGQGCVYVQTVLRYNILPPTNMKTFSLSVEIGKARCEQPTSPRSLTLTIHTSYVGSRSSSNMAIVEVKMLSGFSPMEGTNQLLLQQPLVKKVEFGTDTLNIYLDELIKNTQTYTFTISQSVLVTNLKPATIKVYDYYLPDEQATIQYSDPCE

[2] = molecular target: T2, A2M (α2-macroglobulin) (Homo sapiens, UniProt P01023); test: as above; format: biochemical; settings: covalent amide at thiol ester Gln-975; plasma-purified A2M activated by chymotrypsin; 200 mM glycine, HBS pH 7.4, 37 °C
T2 construct: WT purified from plasma; N1088H recombinant from HEK293 cells (gene based on mRNA M11311), native form enriched by LRP1 depletion; tetramer; cleaved by chymotrypsin in the assay
T2 sequence (P01023 24-1474): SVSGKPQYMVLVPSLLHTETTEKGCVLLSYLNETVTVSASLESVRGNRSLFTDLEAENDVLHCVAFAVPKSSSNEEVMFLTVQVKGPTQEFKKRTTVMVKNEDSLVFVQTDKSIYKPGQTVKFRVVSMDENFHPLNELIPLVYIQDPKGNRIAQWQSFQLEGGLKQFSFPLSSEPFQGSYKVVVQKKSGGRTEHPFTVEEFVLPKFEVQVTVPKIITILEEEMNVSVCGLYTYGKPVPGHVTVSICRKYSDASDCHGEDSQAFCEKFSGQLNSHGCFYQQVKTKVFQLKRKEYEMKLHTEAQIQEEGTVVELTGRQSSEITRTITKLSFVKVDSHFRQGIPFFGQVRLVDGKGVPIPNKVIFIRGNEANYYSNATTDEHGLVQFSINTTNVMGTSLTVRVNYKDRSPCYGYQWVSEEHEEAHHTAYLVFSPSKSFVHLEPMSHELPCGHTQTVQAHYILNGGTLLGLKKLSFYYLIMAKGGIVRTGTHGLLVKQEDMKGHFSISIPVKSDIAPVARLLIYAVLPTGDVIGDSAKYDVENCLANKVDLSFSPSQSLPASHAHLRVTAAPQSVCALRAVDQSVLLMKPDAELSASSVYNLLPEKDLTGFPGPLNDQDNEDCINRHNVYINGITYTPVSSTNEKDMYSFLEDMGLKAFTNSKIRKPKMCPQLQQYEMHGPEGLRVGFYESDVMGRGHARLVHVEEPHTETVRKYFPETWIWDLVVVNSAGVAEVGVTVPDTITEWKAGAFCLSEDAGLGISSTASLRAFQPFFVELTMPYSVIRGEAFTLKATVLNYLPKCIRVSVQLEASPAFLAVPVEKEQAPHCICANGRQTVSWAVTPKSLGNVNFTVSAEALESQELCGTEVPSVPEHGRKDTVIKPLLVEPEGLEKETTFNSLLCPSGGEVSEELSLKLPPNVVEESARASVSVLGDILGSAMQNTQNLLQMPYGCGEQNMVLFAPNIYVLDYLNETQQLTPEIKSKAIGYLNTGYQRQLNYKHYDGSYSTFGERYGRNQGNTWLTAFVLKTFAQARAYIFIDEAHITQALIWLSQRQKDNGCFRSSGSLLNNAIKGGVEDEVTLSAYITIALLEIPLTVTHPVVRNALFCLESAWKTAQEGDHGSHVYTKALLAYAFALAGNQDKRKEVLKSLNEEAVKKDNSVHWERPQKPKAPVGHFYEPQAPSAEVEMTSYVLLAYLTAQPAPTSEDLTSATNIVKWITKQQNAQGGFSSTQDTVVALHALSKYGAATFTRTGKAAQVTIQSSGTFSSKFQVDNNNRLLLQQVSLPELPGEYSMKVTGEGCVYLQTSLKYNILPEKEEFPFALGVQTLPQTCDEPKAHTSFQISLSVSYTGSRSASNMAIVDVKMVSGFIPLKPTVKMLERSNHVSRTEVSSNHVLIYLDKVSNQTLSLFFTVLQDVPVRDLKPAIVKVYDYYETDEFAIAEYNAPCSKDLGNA

[3] = molecular target: Acetylated thermolysin (Geobacillus stearothermophilus) (UniProt P00800)
[4] = molecular target: T3, Thermolysin from Geobacillus stearothermophilus, unmodified (Geobacillus stearothermophilus, UniProt P00800 233-548); test: cell-based or functional assay
T3 sequence (looked up): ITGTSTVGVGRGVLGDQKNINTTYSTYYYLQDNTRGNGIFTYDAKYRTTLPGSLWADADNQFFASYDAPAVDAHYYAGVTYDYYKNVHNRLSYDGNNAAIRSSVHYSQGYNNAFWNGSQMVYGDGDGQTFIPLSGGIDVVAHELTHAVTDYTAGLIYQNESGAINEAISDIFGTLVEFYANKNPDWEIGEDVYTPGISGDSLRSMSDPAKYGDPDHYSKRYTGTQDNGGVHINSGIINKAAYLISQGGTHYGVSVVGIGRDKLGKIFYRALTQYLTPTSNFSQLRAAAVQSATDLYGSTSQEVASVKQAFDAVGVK

LC-MS/MS PRM of the pepsin-digested thiol ester peptide conjugate [2]: both A2Ms were able to conjugate glycine
Molecule: NCC(=O)O [glycine]
LC-MS/MS PRM of the pepsin-digested thiol ester peptide conjugate [1]: both WT and H1084N A2ML1s reacted with the amine substrate glycine

inhibition of acetylated thermolysin's cleavage of resorufin-labeled casein, pH 7.8; molar surplus of A2ML1 needed for full inhibition (fold molar surplus of A2ML1) [3]: 6
inhibition of thermolysin's cleavage of resorufin-labeled casein, pH 7.8; molar surplus of A2ML1 needed for full inhibition [4]: ~2 fold molar surplus of A2ML1
inhibition of thermolysin's cleavage of resorufin-labeled casein, reaction at pH 5; surplus of A2ML1 needed for full inhibition [4]: ~4 fold surplus of A2ML1
B1: Human α2-macroglobulin-like protein 1 (A2ML1), recombinant wild type (natural protein, UniProt A8K2U0-1 18-1454, looked up)
chain: T1 sequence (A8K2U0 18-1454)
modifications: internal thiol ester in which Gln-973 participates

inhibition of thermolysin's cleavage of resorufin-labeled casein, pH 7.8; molar surplus of A2ML1 needed for full inhibition [4]: ~2 fold molar surplus of A2ML1
inhibition of thermolysin's cleavage of resorufin-labeled casein, reaction at pH 5; surplus of A2ML1 needed for full inhibition [4]: ~4 fold surplus of A2ML1
B2: A2ML1 H1084N mutant (natural protein, human, UniProt A8K2U0-1 18-1454, looked up)
chain: T1 sequence (A8K2U0 18-1454) with H1067N
modifications: internal thiol ester in which Gln-973 participates
